Data on 30 molecules can be found in patent publication US20260167737A1 (BIGHAT BIOSCIENCES, published 2026).

The target of the test is T1, CDH17 (UniProt Q12864 23-787, limits assumed).
T1 construct: also called cadherin 17
T1 sequence (looked up): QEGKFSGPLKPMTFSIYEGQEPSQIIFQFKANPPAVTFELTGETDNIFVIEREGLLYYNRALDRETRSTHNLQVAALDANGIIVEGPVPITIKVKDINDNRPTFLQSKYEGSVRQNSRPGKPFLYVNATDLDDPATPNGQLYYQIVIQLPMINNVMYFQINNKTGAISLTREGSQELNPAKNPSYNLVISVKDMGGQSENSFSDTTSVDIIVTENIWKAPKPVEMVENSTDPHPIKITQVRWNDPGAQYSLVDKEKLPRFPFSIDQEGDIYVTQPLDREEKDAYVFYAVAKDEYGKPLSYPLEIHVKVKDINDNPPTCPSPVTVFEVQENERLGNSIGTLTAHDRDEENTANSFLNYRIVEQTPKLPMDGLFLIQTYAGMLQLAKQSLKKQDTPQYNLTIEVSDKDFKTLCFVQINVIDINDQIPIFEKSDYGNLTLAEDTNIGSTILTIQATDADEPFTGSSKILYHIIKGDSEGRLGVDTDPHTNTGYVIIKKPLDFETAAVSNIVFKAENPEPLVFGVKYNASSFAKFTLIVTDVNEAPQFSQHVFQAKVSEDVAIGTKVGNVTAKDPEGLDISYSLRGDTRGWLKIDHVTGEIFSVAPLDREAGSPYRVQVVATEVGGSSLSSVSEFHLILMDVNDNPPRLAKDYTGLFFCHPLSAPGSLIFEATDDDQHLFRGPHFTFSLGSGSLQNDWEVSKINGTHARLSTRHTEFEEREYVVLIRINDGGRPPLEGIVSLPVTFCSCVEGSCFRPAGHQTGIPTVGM
The test is described as follows: method not stated; KD at pH 7.4.

B1: CDH17_vhh_0001 (VHH)
VHH: QVQLQESGGGLVQPGGSTRLSCVSSRTFSYYDMGWFRQAPGKEREFVALLSWNGENAEYSDSVMGRFTVSRGNTQNSVNLQMNNLKPEDTGIYYCAVTHGGARSVRSWGQGTQVTVSS
notes: also called parental VHH-0001
Turning to B1, binding was characterised by a dissociation constant (Kd) of 27.2 nM.

B2: CDH17_vhh_0653 (VHH)
VHH: QVQLQESGGGLVQPGGSTRLSCVSSRTFSYYDMGWFRQAPGKEREFVALLSWRGINAEYSDTVMGRFVVSRGNTQNSVNLQMNNLKPEDTGIYYCAVTYGVARSVRSWGQGTQVTVSS
As to B2, binding was put at a Kd of 3.12 nM.

B3: CDH17_vhh_0259 (VHH)
VHH: QVQLQESGGGLVQPGGSTRLSCVSSRTFSYYDMGWFRQYPGKEREFVALLSWRGNNAEYSDSVMGRFTVSRGNTQNSVNLQMNNLKPEDTGIYYCAVTYGGARSVRSWGQGTQVTVSS
On to B3, for which binding was put at a Kd of 4.75 nM.

B4: CDH17_vhh_0267 (VHH)
VHH: QVQLQESGGGLVQPGGSTRLSCVSSRTFSYYDMGWFRYAPGKEREFVALLSWRGNNAEYADSVMGRFTVSRGNTQNSVNLQMNNLKPEDTGIYYCAVTYGGARSVRSWGQGTQVTVSS
In the case of B4, binding was put at a Kd of 5.08 nM.

B5: CDH17_vhh_0676 (VHH)
VHH: QVQLQESGGGLVQPGGSTRLSCVSSRTFSYYDMGWFRQAPGKEREFVALLSWRGNNAEYSDDVMGRFTVSRGNTQNSVNLQMNNLKPEDTGIYYCAVTYGTARSVRSWGQGTQVTVSS
Regarding B5, binding was characterised by a dissociation constant (Kd) of 4.36 nM.

B6: CDH17_vhh_0262 (VHH)
VHH: QVQLQESGGGLVQPGGSTRLSCVSSRTFSYYDMGWFRQAPGKEREFVALLSWRGNNAEYSDTVMGRFTVSRGNTQNSVNLQMNNLKPEDTGIYYCAVTYGGARSVRSWGQGTQVTVSS
As to B6, binding was characterised by a dissociation constant (Kd) of 5.14 nM.

B7: CDH17_vhh_0591 (VHH)
VHH: QVQLQESGGGLVQPGGSTRLSCVSSRTFSYYDMGWFRQAPGKEREFVALLSWRGNNAEYSDSVMGRFTVSRGNTQNSVNLQMNNLKPEDTGIYYCAVTYGGARSVRLWGQGTQVTVSS
Turning to B7, binding was characterised by a dissociation constant (Kd) of 3.21 nM.

B8: CDH17_vhh_0652 (VHH)
VHH: QVQLQESGGGLVQPGGSTRLSCVSSRTFSYYDMGWFRQYPGKEREFVALLSWRGNYAEYSDSVMGRFVVSRGNTQNSVNLQMNNLKPEDTGIYYCAVTYGGARSVRLWGQGTQVTVSS
For B8, binding was put at a Kd of 3.3 nM.

B9: CDH17_vhh_0675 (VHH)
VHH: QVQLQESGGGLVQPGGSTRLSCVSSRTFSYYDMGWFRQAPGKEREFVALLSWRGNNAEYSDTVMGRFTVSRGNTQNSVNLQMNNLKPEDTGIYYCAVTYGGARSVRAWGQGTQVTVSS
B9: binding was characterised by a dissociation constant (Kd) of 3.89 nM.

B10: CDH17_vhh_0650 (VHH)
VHH: QVQLQESGGGLVQPGGSTRLSCVSSRTFSYYDMGWFRQAPGKEREFVALLSWRGNNAEYRDSVMGRFTVSRGNTQNSVNLQMNNLKPEDTGIYYCAVTYGGAKSVRLWGQGTQVTVSS
For B10, the dissociation constant (Kd) – broadly, a measure of binding affinity in units of concentration – was 2.45 nM.

B11: CDH17_vhh_0613 (VHH)
VHH: QVQLQESGGGLVQPGGSTRLSCVSSRTFSYYDMGWFRQAPGKEREFVALLSWRGENAEYSDSVMGRFTVSRGNTQNSVNLQMNNLKPEDTGIYYCAVTYGGARSVRSWGQGTQVTVSS
B11: the Kd came out at 4.85 nM.

B12: CDH17_vhh_0263 (VHH)
VHH: QVQLQESGGGLVQPGGSTRLSCVSSRTFSYYDMGWFRQAPGKEREFVALLSWRGNYAEYSDSVMGRFVVSRGNTQNSVNLQMNNLKPEDTGIYYCAVTYGGARSVRSWGQGTQVTVSS
B12 came in with a Kd of 3.94 nM.

B13: CDH17_vhh_0629 (VHH)
VHH: QVQLQESGGGLVQPGGSTRLSCVSSRTFSYYDMGWFRQAPGKEREFVALLDWRGENAEYSDSVMGRFTVSRGNTQNSVNLQMNNLKPEDTGIYYCAVTYGGARSVRSWGQGTQVTVSS
B13 yielded a Kd of 4.96 nM.

B14: CDH17_vhh_0274 (VHH)
VHH: QVQLQESGGGLVQPGGSTRLSCVSSRTFSYYDMGWFRQAPGKEREFVALLSWRGNNAEYSDSVMGRFVVSRGNTQNSVNLQMNNLKPEDTGIYYCAVTYGGAKSVRSWGQGTQVTVSS
In turn, B14 came in with a Kd of 4.35 nM.

B15: CDH17_vhh_0271 (VHH)
VHH: QVQLQESGGGLVQPGGSTRLSCVSSRTFSYYDMGWFRQAPGKEREFVALLSWRGNNAEYSDSVMGRFVVSRGNTQNSVNLQMNNLKPEDTGIYYCAVTYGVARSVRSWGQGTQVTVSS
B15: the affinity, expressed as Kd, was 2.82 nM.

B16: CDH17_vhh_0173 (VHH)
VHH: QVQLQESGGGLVQPGGSTRLSCVSSRTFSYYDMGWFRQAPGKEREFVALLSWRGNNAEYRDSVMGRFTVSRGNTQNSVNLQMNNLKPEDTGIYYCAVTYGGARSVRSWGQGTQVTVSS
For the molecule B16, binding was put at a Kd of 4.94 nM.

B17: CDH17_vhh_0644 (VHH)
VHH: QVQLQESGGGLVQPGGSTRLSCVSSRTFSYYDMGWFRQAPGKEREFVALLSWRGNNAEYRDSVMGRFVVSRGNTQNSVNLQMNNLKPEDTGIYYCAVTYGVARSVRSWGQGTQVTVSS
Molecule B17 returned a Kd of 3.32 nM.

B18: CDH17_vhh_0622 (VHH)
VHH: QVQLQESGGGLVQPGGSTRLSCVSSITFSYYDMGWFRQAPGKEREFVALLSWRGENAEYSDSVMGRFTVSRGNTQNSVNLQMNNLKPEDTGIYYCAVTYGGARSVRSWGQGTQVTVSS
In turn, B18 returned an equilibrium dissociation constant (Kd) of 2.93 nM.

B19: CDH17_vhh_0672 (VHH)
VHH: QVQLQESGGGLVQPGGSTRLSCVSSRTFSYYDMGWFRQAPGKEREFVALLSWRGNNAEYSDSVHGRFTVSRGNTQNSVNLQMNNLKPEDTGIYYCAVTYGGARSVRLWGQGTQVTVSS
As for B19, the Kd turned out to be 3.76 nM.

B20: CDH17_vhh_0645 (VHH)
VHH: QVQLQESGGGLVQPGGSTRLSCVSSRTFSYYDMGWFRQYPGKEREFVALLSWRGNYAEYSDSVMGRFVVSRGNTQNSVNLQMNNLKPEDTGIYYCAVTYGGARSVRSWGQGTQVTVSS
For B20, the Kd was 5.17 nM.

B21: CDH17_vhh_0632 (VHH)
VHH: QVQLQESGGGLVQPGGSTRLSCVSSRTFSYYDMGWFRQAPGKEREFVALLSWRGERAEYSDSVMGRFTVSRGNTQNSVNLQMNNLKPEDTGIYYCAVTYGGARSVRSWGQGTQVTVSS
In turn, B21 displayed a dissociation constant (Kd) of 4.9 nM.

B22: CDH17_vhh_0156 (BHB156) (VHH)
VHH: QVQLQESGGGLVQPGGSTRLSCVSSRTFSYYDMGWFRQAPGKEREFVALLSWRGNNAEYSDSVMGRFTVSRGNTQNSVNLQMNNLKPEDTGIYYCAVTYGGARSVRSWGQGTQVTVSS
Turning to B22, the Kd was 7.59 nM.

B23: CDH17_vhh_0372 (VHH)
VHH: QVQLQESGGGLVQPGGSTRLSCVSSRTFSYYDMGWFRQAPGKEREFVALLDWRGNNAEYSDSVMGRFTVSRGNTQNSVNLQMNNLKPEDTGIYYCAVTYGGARSVRSWGQGTQVTVSS
For the molecule B23, the Kd stood at 4.85 nM.

B24: CDH17_vhh_0587 (VHH)
VHH: QVQLQESGGGLVQPGGSTRLSCVSSRTFSYYDMGWFRQAPGKEREFVALLSWRGINAEYSDSVMGRFTVSRGNTQNSVNLQMNNLKPEDTGIYYCAVTYGGARSVRSWGQGTQVTVSS
In turn, B24 came in with a Kd of 5.01 nM.

B25: CDH17_vhh_0646 (VHH)
VHH: QVQLQESGGGLVQPGGSTRLSCVSSRTFSYYDMGWFRQAPGKEREFVALLSWRGNNAEYRDSVMGRFTVSRGNTQNSVNLQMNNLKPEDTGIYYCAVTYGGARSVRLWGQGTQVTVSS
B25: the Kd amounted to 2.63 nM.

B26: CDH17_vhh_0395 (VHH)
VHH: QVQLQESGGGLVQPGGSTRLSCVSSRTFSYYDMGWFRQAPGKEREFVALLSWRGNNAEYSESVMGRFTVSRGNTQNSVNLQMNNLKPEDTGIYYCAVTYGGARSVRSWGQGTQVTVSS
Regarding B26, the Kd was 5.47 nM.

B27: CDH17_vhh_0648 (VHH)
VHH: QVQLQESGGGLVQPGGSTRLSCVSSRTFSYYDMGWFRQAPGKEREFVALLSWRGNNAEYSDSVMGRFVVSRGNTQNSVNLQMNNLKPEDTGIYYCAVTYGVAKSVRSWGQGTQVTVSS
As for B27, the affinity, expressed as Kd, was 2.18 nM.

B28: CDH17_vhh_0674 (VHH)
VHH: QVQLQESGGGLVQPGGSTRLSCVSSRTFSYYDMGWFRQAPGKEREFVALLSWRGNNAEYSDTVMGRFTVSRGNTQNSVNLQMNNLKPEDTGIYYCAVTYGGARSVRKWGQGTQVTVSS
B28 had a Kd of 3.79 nM.

B29: CDH17_vhh_0670 (VHH)
VHH: QVQLQESGGGLVQPGGSTRLSCVSSRTFSYYDMGWFRQAPGKEREFVALLDWRGNYAEYSDSVMGRFTVSRGNTQNSVNLQMNNLKPEDTGIYYCAVTYGGARSVRSWGQGTQVTVSS
In turn, B29 yielded a Kd of 4.53 nM.

B30: CDH17_vhh_0651 (VHH)
VHH: QVQLQESGGGLVQPGGSTRLSCVSSRTFSYYDMGWFRQYPGKEREFVALLSWRGNNAEYSDSVMGRFVVSRGNTQNSVNLQMNNLKPEDTGIYYCAVTLGVARSVRSWGQGTQVTVSS
Molecule B30 displayed a Kd of 3.71 nM.
